Source: publication PMC2630536

Key:
[1] = target: fluorescein-EGR-chloromethylketone-labeled thrombin (bovine) (bovine); experiment: other fluorescence titration
TMEGF456 D349N = experiment: SPR
TMEGF456 E357Q = experiment: SPR
TMEGF456 M388L = experiment: SPR
TMEGF456 Y358F = experiment: SPR

TMEGF45 D349N (domain or fragment) showed a Kd [1] of 43 nM.

For TMEGF45 D400E (domain or fragment), the Kd [1] was 49 nM.

TMEGF45 E357Q (domain or fragment) showed a Kd [1] of 55 nM.

With TMEGF45 M388L (domain or fragment) the Kd [1] was 57 nM.

TMEGF45 wild type (domain or fragment) showed a Kd [1] of 68 nM.

With “thrombin (PPACK-thrombin in the SPR; active thrombin in the protein C activation assay) (enzyme)” the Kd (TMEGF456 D349N) was 4.2 nM, the Kd (TMEGF456 E357Q) was 5.2 nM and the Kd (TMEGF456 M388L) was 4.4 nM. For the same substance, the Kd (TMEGF456 Y358F) was 2.6 nM.
